The record followed here is publication PMC4533164, “Approaching rational epitope vaccine design for hepatitis C virus with meta-server and multivalent scaffolding” (Scientific Reports, 2015).

The stoichiometry N is the number of molecules, sites or subunits per partner or assembly.

Test [1] deals with 1VQO_U_ES-ferritin (UniProt Q9ZLI1). The test is described as follows: native gel or EMSA; blue native (BN) PAGE of the purified nanoparticle, Coomassie blue staining. Background: Mobility shift assays separate free from complexed probe on a gel.
Test [2] addresses T1, 1VQO_U_ES-ferritin (UniProt Q9ZLI1).
T1 construct: ferritin subunit beginning at Asp5; 24 copies on the particle; also called E1 nanoparticle antigen; source: HEK293F, transiently expressed, purified (Ni Sepharose excel, SEC); copies: 24
The test is described as follows: ELISA; HCV antigen coated on 96-well plates overnight at 4 °C; antibody added at a maximum of 2 μg/ml in a 5-fold dilution series, 1 h at RT; detected with peroxidase goat anti-human IgG, read at 450 nm. Particulars: both partners purified. On the technique in general: In an ELISA, binding on a coated surface is turned into a signal by an enzyme label.

“1VQO_U_ES-ferritin (from UniProt Q9ZLI1 5-167)” registered a stoichiometry N with 1VQO_U_ES-ferritin [1] of 24.

B1: human neutralizing antibody IGH526 (antibody, V domains shown)
VH: VQLLEQSGAEVKRPGASVKVSCKASGYTFTSYAIHWVRQAPGQRLEWMGWINPGNGNAKYSQRFQGRVIISRDTSATTSYMELSSLTSEDTAVYSCARDRGFDLLTGHYLGLDPWGQGTLVTVSS
VL: ELTLTQPASASATPGQRVTISCSGSSSNIGGNTVNWYQHLPGAAPKLLIHNNDLRPSGVPDRFSGSKSGTSASLAVSGLQSEDEADYFCAAWDDGLNGWVFGGGTKLTVL
notes: Captured on anti-human Fc biosensors and detected with anti-human IgG, so it carried a human Fc in the assays; also called nAb IGH526
On to B1, for which the binding result with 1VQO_U_ES-ferritin [2] is “binds”.
